# Test: soluble on expression in E. coli; label from the status in PepcDB or PDB records
row,Sequence,soluble on expression in E. coli
1,ASTRNLMIEGENLEVLKLLQKSYAGRAKLVYIDPPYNTGKDFVYSDNFTDSLRHYLELTGQTTDGKRISSHTDASGRFHTDWLNMIYPRLKLARDLLADDGVIAVHIDEHEQHALVLVMREIFGEDNELGVAVWDKRNPKGDARGIAYQHESIVLFARDAQLLFERAPLKRPKRNAQRMLDAARGAIAGAATIADANAAYRAWVKSQTTLSGGEAMYDRISADGRVYRLVSMAWPNKKKAPDDYFVPLVHPVTGKPCPVPERGWRNPPATMQALIDKGLVEFGADETTQPQRIYFLDENMYENVPSVLPFGGSDDALMKSLGIPFDQPKPVEFAASIIGWCTDGDDLIVDFFGGSGTTGHAVMALNAADGGNRRYVLVQLPEPLDAGSKDQKAAADFCAAQRVPLNLAELTKERLRRAAARVAAEHPGTR,soluble
2,MSLKFPRKGIPQEEVMRELEKYTSKDLSFSSGKILGSMCTLPHELAKEVFCMYMDRNLGDPGLHPGTKKIEEEVIEMLSDLLHLERGYGHIVSGGTEANILAVRAFRNLADVENPELILPKSAHFSFIKAGEMLGVKLIWADLNPDYTVDVKDVEAKISENTIGIVGIAGTTGLGVVDDIPALSDLARDYGIPLHVDAAFGGFVIPFAKELGYDLPDFDFKLKGVQSITIDPHKMGMAPIPAGGIVFRHKKYLRAISVLAPYLAGGKIWQATITGTRPGASVLAVWALIKHLGFEGYMEIVDRAMKLSRWFAEEIKKTPGAWLVREPMLNIVSFKTKNLRRVERELKSRGWGISAHRGYIRIVSHASCDGGHDEGHHHHHH,soluble
3,MSLQQALINFYYQFHTKQHYFLCHDILEDAWKAENNYSKQDAVVSLILFATACYHYRRNNLKGAYKSFNKSKEIIQNAKDRDALYLNLNDYQLLIEQQIAKLNAAKPFSSVILPITPVFERIIKANYPDYDYNQETATDPFIVDHHMRRDRSEVIAAKEEAIQLRKHRRNEGHHHHHH,soluble
4,MKPARLSQTVVAPGCWGELPWGNYYREALEQQLNPWFAKMYGFHLLKIGNLSAEINSEACAVSHQVNVSSQGSPMQVLADPLHLPFADKSVDVCLLAHTLPWCTDPHRLLREADRVLIDDGWLVISGFNPLSLMGLRKLVPVLRKTPPYNSRMFTLMRQLDWLSLLNFEVLHYSRFHVLPWKKQGGRLLNTHIPALGCLQLIVARKRTIPLTLNPLRHNKSKTPIRQTVGATRQYRKPDG,not soluble
5,MYKPTERNAQNSLAMMNYAYDTSLQETMILTEAFHTDRVICDNGSLYKFIWVQEGKLTLIVDHVEIEMEQDEIISVSNLHRTEFKNVSGRYLALLFNENFYGIYKHEKEVSCSGVLFNGTSGIVHLRLPIADSELLHEVVDRMVTEYILRDNLQGEMLRLLLKRFIILCTRLARKQLSGFPVNEKGFDIIQRYYVLVDNHFKEKKQVQAYAALLHRSPKTLSNLFAAYGMPSPLKIIQERVVTEAKRLLLHTSHSIKEISVILGFESVGTFSRFFKNMTGENTSAYRKRLQ,not soluble
6,GPGSMTNPSNSNLQALREELCTPGLDQGHLFEGWPETVDECNERQIALLTDLYMFSNMYPGGVAQYIRNGHELLARESEEVDFAALEMPPLIFEAPSLHRRTAERTALENAGTAMLCKTVFVLVAGGLGERLGYSSIKVSLPVETATNTTYLAYYLRWAQRVGGKEVPFVIMTSDDTHDRTLQLLRELQLEVPNLHVLKQGQVFCFADSAAHLALDETGKLLRKPHGHGDVHSLIYNATVKRDVVPDSGDGTATAQPLVNDWLAAGYESIVFIQDTNAGATITIPISLALSAEHSLDMNFTCIPRVPKEPIGLLCRTKKNSGDPWLVANVEYNVFAEVSRALNKDGGDEVSDPTGFSPFPGSVNTLVFKLSSYVDRLRESHGIVPEFINPKYSDETRRSFKKPARIESLMQDIALLFSEDDYRVGGTVFERFSYQPVKNSLEEAAGLVAQGNGAYCAATGEAAFYELQRRRLKAIGLPLFYSSQPEVTVAKDAFGVRLFPIIVLDTMCASSGSLDDLARVFPTPEKVHIDQHSTLIVEGRVIIESLELYGALTIRGPTDSMALPHVVRNAVVRNAGWSVHAILSLCAGRDSRLSEVDRIRGFVLKKTAMAVMDCNTKGESEAGAPSGAADPAKL,soluble
7,SCREKTELTPDQQTLLHFIMDSYNKQRMPQEITNKILKEEFSAEENFLILTEMATNHVQVLVEFTKKLPGFQTLDHEDQIALLKGSAVEAMFLRSAEIFNKKLPSGHSDLLEERIRNSGISDEYITPMFSFYKSIGELKMTQEEYALLTAIVILSPDRQYIKDREAVEKLQEPLLDVLQKLCKIHQPENPQHFACLLGRLTELRTFNHHHAEMLMSWRVNDHKFTPLLCEIWDVQ,soluble
8,TSKCTIIPGSGFRNDEGKYEIIADKCIEADYPQKDEVAAAAYMNKYVEEVILRAPEQWMWLHKRYKTMQDENEPKGIRYK,not soluble
9,MGSDKIHHHHHHMTSVEAFRGLYYPNKIGRLCFLSLEEVMGQNGVKALLRLADLQQYIDAYPPNDLKREFPFEAISKYSVALGTMYGPRGARGLELRAGRVAFSLGLKEFGPLLGMADLALKLMPITMKLKIVLNATAQTFDRFSDQSSHVEEERGRFVYHITRCSNCITRPEPGPVFYIARGILEEATAWVSGGRRFAVEQLSCMGQGNCSSCAFAIGKDPLE,not soluble
10,MPSFLEISPDKLNRLIGTPGAPRIIDVRTDEDFALDPRLVPGSIRRDHAEVASWADSIDADAVVVVCHRGAKLSHGVAAYLRHAGIEAESLAGGFEAWAAAGPAVPEAKLSRRDAQGRTVWVTRARPKIDRIACPWLIRRFIDPNAVFLFVPAPEVVAVGERFGAAPFDIEDVFWSHRGELCTFDVMVEEFGLASEPLLRLAQIVRAADTARLDLAPEASGLLAASLGLSRMYSDDLEQLEAGMLLYDAFFRWCRDATEETHNWPAPKKRALEHHHHHH,soluble
11,GPGSMALATTGYPALASSHSFANASTSVMTASAMAVVRRAATTTGASAATTTPQVVHYSKLGMDGFTDIKFNTAADELLELVETKVDALDSAAVEDVSCNGGVLTLETTDRGTFILNKQAPNVQLWLSSPISGPHHYDMITVTQGGHEKVSWKSDHDGHDLVKKLEEELTEVLGTDFKV,soluble
12,GAEFKEKPEAPTEQLDVACGQENLPVGAWPPGAAPAPFQYTPDHVVGPGADIDPTQITFPGCICVKTPCLPGTCSCLRHGENYDDNSCLRDIGSGGKYAEPVFECNVLCRCSDHCRNRVVQKGLQFHFQVFKTHKKGWGLRTLEFIPKGRFVCEYAGEVLGFSEVQRRIHLQTKSDSNYIIAIREHVYNGQVMETFVDPTYIGNIGRFLNHSCEPNLLMIPVRIDSMVPKLALFAAKDIVPEEELSYDYSGRYLNLTVSASKERLDHGKLRKPCYCGAKSCTAFLPFDSS,soluble
13,MPDLFFVTLYDRQDLLKESMTFLNSEWPRSDGSREHSQKKSCRQSPPMSFLLLNKENDEILGHSRITHLPNRDHALWIESVMIKKDQRGLGLGKFLMKSTEKWMTEKGFNEAYLSTDDQCRFYESLGYEKCDPIVHSTTATCIFPAMNHFQNAAASNPSFLSKIAQPSASSTVSASAPPPPPPPPMAPKMVTRSTSPIVDVNTIDHQYMRKWLKPTE,soluble
14,MNATAVAAAATGRQLHKFGGSSLADVKCYLRVANIMANYSHPGDLMVVSAAGSTTNQLISWLKLSQNDRLSAHQVQQSLRRYQHDLINGLLPPEMAEPLISEFIHDLERLAGLLDNKIDDVIYAEVVGHGEIWSARLMSALLNKLDMDAVWLDARRFLRAERAAQPQIDESRSYPLLQQLMAQHPHQRLVVTGFISRNEAGETVLLGRNGSDYSATQVGALAGAERVTIWSDVAGVYSADPRKVKDACLLPLLRLDEASELARLAAPVLHTRTLQPVSGSDIDLQLRCSYQPEQGSTRIERVLASGLGAKIVTSHDDVCLIELQIASHHDFSLAQKEIDLLLKRAQIKPLATGIHPDRNLLQLCYTSEVVNSALRVLEDAALPGKLSLREGLALVALVGAGVSKNPLHSHRFYQQLKDQPVEFVWQAEDGISMVAVLRLGPTEHLIQGLHQSLFRAEKRIGLMLFGKGNIGARWLELFAREQKSLSARSGFEFVLAGVVDSRRSLLSYDGLDASRTLAFYNDEAKEQDEESLFLWMRAHPFDDLVVLDVTASPSLAEQYLDFASYGFHVISANKLAGASSSNNYRQIRDAFAKTGRHWLYNATVGAGLPVNHTVRDLRDSGDSILAISGIFSGTLSWLFLQFDGSVPFTELVDQAWQQGLTEPDPRVDLSGQDVMRKLVILAREAGYDIEPNQVRVESLVPAGAESGSVDQFFENGEALNQQMIQRLEAAKEMGLVLRYVARFDANGKARVGVEAVRTDHPLASLLPCDNVFAIESRWYRDNPLVIRGPGAGRDVTAGAIQSDLNRLSQLL,not soluble

# From the DeepSol protein solubility set
